Source: patent US11925667B2, “Engineered therapeutic probiotic system and method” (priority 2018, dated 2024)

Test system: C=CC/C(=N/OS(=O)(=O)O)S[C@@H]1O[C@H](CO)[C@@H](O)[C@H](O)[C@H]1O
Assay: Myrosinase activity assay (glucose release from sinigrin hydrolysis), TGG1
Type: biochemical, Arabidopsis thaliana
Description: Screening for improved β-thioglucosidase. The activity and stability of myrosinase, a β-thioglucosidase that hydrolyzes glucosinolate to sulforaphane, varies at differing pH and temperature; in a preferred embodiment the selected enzyme needs to function under physiological colorectal conditions. The healthy colon pH averages 6.6, while it is 7.0 and 6.7 in patients with adenoma and carcinoma, respectively. In addition, the temperature of the human intestinal tract ranges from 36° C. to 40° C. depending on the individual's metabolic state. In the illustrative example five plant-derived myrosinase orthologues with minimal glycosylation sites and the absence of the co-factor-binding sites using the BLAST search and the Enzyme Function Initiative-Enzyme Similarity Tool (EFI-EST), are compared to the well-characterized myrosinases from Brevicoryne brassicae (BMY1) and Arabidopsis thaliana (TGG1) (FIG. 2a and FIG. 7).
Gene cloning, protein expression and purification. Myrosinase genes are optimized for E. coli expression and cloned into the pET28b expression vector. The plasmids are transformed into E. coli BL21 (DE3) cultured in lysogeny broth (LB) (BD, Le Pont de Claix, France) at 37° C., 225 rpm to OD600 0.6 followed by 0.5 mM isopropyl β-D-1-thiogalactopyranoside (IPTG) induction at 16° C., 180 rpm for 16 hours. Cells are harvested, resuspended in lysis buffer (50 mM Tris-Cl, 300 mM NaCl, 10% glycerol, 1 mM dithiothreitol [DTT], pH 8.0) and lysed using Emulsiflex C-3 (Avestin). Expressed myrosinases are purified by IMAC Ni-NTA purification followed by Hi-Load Superdex 200 size exclusion column chromatography (GE, Uppsala, Sweden). The purified protein is concentrated and stored at −80° C. Pilot scale protein purification and enzymatic assay is conducted.
Myrosinase screening assay. The enzymatic reaction is measured for the release of glucose resulting from sinigrin hydrolysis. The reaction is conducted in sodium phosphate-buffered solution supplied in the Amplex® Red Glucose/Glucose Oxidase Assay Kit (Thermo Fisher Scientific, Geel, Belgium). The reaction buffer is prepared at different pH values (6.0, 6.5, 7.4 and 8.0) and at different reaction temperatures (34° C., 37° C., and 40° C.). The reaction is prepared using 0.1 μM purified myrosinase added to 1× Amplex® Red Glucose Assay reaction mixture and was kick-started with the corresponding concentration of sinigrin. The reaction can be measured at 560 nm absorbance and fluorescence (λex=540 nm, λem=590 nm) using a Synergy H1 Multi-Mode microtiter plate reader (BioTek®, Winooski, USA). The reaction initial velocity (VO) is determined and fitted into a Michaelis-Menten curve. Vmax and KM are determined by fitting into the Michaelis-Menten equation (Eq. 1) using GraphPad Prism Software. ^v=Vmax*[Sinigrin]/(KM+[Sinigrin]) (Eq.1)
Table S1|Myrosinase activity assay screening under various pH and temperature conditions (n=3 independent experiments, each measurement performed in triplicates; mean[…].).

## Arabidopsis thaliana myrosinase TGG1 (Arabidopsis thaliana)
other: pH 6.0, 37° C., pH 6.0, 37.0 °C
  Km: 361 ± 11 µM
other: pH 6.5, 37° C., pH 6.5, 37.0 °C
  Km: 198 ± 20 µM
other: pH 7.4, 34° C., pH 7.4, 34.0 °C
  Km: 78 ± 8 µM
other: pH 7.4, 37° C., pH 7.4, 37.0 °C
  Km: 71 ± 3 µM
other: pH 7.4, 40° C., pH 7.4, 40.0 °C
  Km: 88 ± 9 µM
other: pH 8.0, 37° C., pH 8.0, 37.0 °C
  Km: 137 ± 69 µM
